Assay results from patent publication US20210252159A1, “CONJUGATES OF CARTILAGE-HOMING PEPTIDES” (priority 2018, published 2021).
Positions of bridges follow the written chain, without caps; N, C: chain ends. Residues, ends and D or L forms follow the SMILES beside them. *: point of attachment. X1 = CC(CCC(C)C(=O)*)C(=O)OCC(=O)[C@@]1(O)[C@H](C)C[C@H]2[C@@H]3CCC4=CC(=O)C=C[C@]4(C)[C@@]3(F)[C@@H](O)C[C@@]21C

Key:
[1] = Hydrolysis assay of peptide-drug conjugates in human plasma (free Dex by LC/MS); format: in vitro ADME; conditions: 37° C., release of free Dex, time points to 32 hr, read-out: Half-life (hours) as measured in the hydrolysis experiments (converted)
Experimental: In order to determine hydrolysis rates, conjugates can be diluted in PBS, rat plasma, or human plasma and incubated at 37 degrees. Samples can be taken at designated time-points (e.g., 1, 2, 3, 5, 10, 15, 20, 25, 30, 45, 60, or 90 minutes and/or hours after administration). Internal standards such as triamcinolone acetonide (TAA) can be added as an internal standard, and then active agent/TAA can be extracted using acetonitrile, for example. The samples can be dried down, reconstituted, and analyzed by LC/MS. Data can be normalized using Dex AUC/TAA AUC. Percent hydrolysis can be calculated using the average ratio for active agent AUC/TAA AUC at a time point of maximal drug release. A general method can include using a lyophilized, purified peptide-drug conjugates reconstituted in DMSO following production to generate stock solution at 20 mg/mL. Each conjugate stock can be brought to 0.25 mg/mL in each hydrolysis condition (1×DPBS, human plasma and rat plasma) in triplicate and rocked at 37° C. To quantitate free active agent, 100 μl of the hydrolyzed conjugate solution can be transferred into 1 mL acetonitrile at 4° C. at which time all plasma proteins and intact conjugates can precipitate. This can be performed repeatedly to generate a series of time points (0 hr, 0.5 hr, 1 hr, 2 hr, 4 hr, 6 hr, 8 hr, 24 hr, 32 hr). The acetonitrile solution can be spun at 17,000 g for 5 minutes, and the supernatant removed and added to a 96 well block. The pellet can then be resuspended in 500 μl acetonitrile and re-pelleted as before. The supernatant can be removed and added to the same well in the block. Samples can be prepared for analysis by drying under a nitrogen stream followed by reconstitution in 110 μl 45:55 ACN:Citrate 10 mM pH 5.5. […] Quantification of free active agent (or drug) can be achieved through integration of active agent peaks of the TIC. […]
To quantitate free dexamethasone (Dex), 100 μl of the hydrolyzed conjugate solution was transferred into 1 mL acetonitrile at 4° C. at which time all plasma proteins and intact conjugates precipitated. […]

[2] = Hydrolysis assay of peptide-drug conjugates in PBS (free Dex by LC/MS); format: physicochemical; conditions: 37° C.
Experimental: In order to determine hydrolysis rates, conjugates can be diluted in PBS, rat plasma, or human plasma and incubated at 37 degrees. Samples can be taken at designated time-points (e.g., 1, 2, 3, 5, 10, 15, 20, 25, 30, 45, 60, or 90 minutes and/or hours after administration). Internal standards such as triamcinolone acetonide (TAA) can be added as an internal standard, and then active agent/TAA can be extracted using acetonitrile, for example. The samples can be dried down, reconstituted, and analyzed by LC/MS. Data can be normalized using Dex AUC/TAA AUC. Percent hydrolysis can be calculated using the average ratio for active agent AUC/TAA AUC at a time point of maximal drug release. A general method can include using a lyophilized, purified peptide-drug conjugates reconstituted in DMSO following production to generate stock solution at 20 mg/mL. Each conjugate stock can be brought to 0.25 mg/mL in each hydrolysis condition (1×DPBS, human plasma and rat plasma) in triplicate and rocked at 37° C. To quantitate free active agent, 100 μl of the hydrolyzed conjugate solution can be transferred into 1 mL acetonitrile at 4° C. at which time all plasma proteins and intact conjugates can precipitate. This can be performed repeatedly to generate a series of time points (0 hr, 0.5 hr, 1 hr, 2 hr, 4 hr, 6 hr, 8 hr, 24 hr, 32 hr). The acetonitrile solution can be spun at 17,000 g for 5 minutes, and the supernatant removed and added to a 96 well block. The pellet can then be resuspended in 500 μl acetonitrile and re-pelleted as before. The supernatant can be removed and added to the same well in the block. Samples can be prepared for analysis by drying under a nitrogen stream followed by reconstitution in 110 μl 45:55 ACN:Citrate 10 mM pH 5.5. To ensure optimal recovery the block can be shaken via plate shaker at 7,000 rpm for 5 minutes during the reconstitution step. Prior to LC/MS the samples can be transferred to a 96 well plate and centrifuged at 6,500 g for 15 minutes. Analysis can be performed on an Agilent 1260 Infinity series HPLC with inline 6120 single quad MS using acetonitrile, water (+0.1% TFA) gradient (shown below) on an InfinityLab Poroshell SB-C18 column. Quantification of free active agent (or drug) can be achieved through integration of active agent peaks of the TIC.
Lyophilized, purified peptide-drug conjugates were reconstituted in DMSO following production to generate stock solution at 20 mg/mL. Each conjugate stock was brought to 0.25 mg/mL in each hydrolysis condition (1×DPBS, human plasma and rat plasma) in triplicate and rocked at 37° C.
To quantitate free dexamethasone (Dex), 100 μl of the hydrolyzed conjugate solution was transferred into 1 mL acetonitrile at 4° C. at which time all plasma proteins and intact conjugates precipitated. This was performed repeatedly to generate a series of time points (0 hr, 0.5 hr, 1 hr, 2 hr, 4 hr, 6 hr, 8 hr, 24 hr, 32 hr). The corticosteroid triamcinolone acetonide (25 μl, 0.1 mg/mL in 45:55 ACN:Citrate 10 mM pH 5.5) was supplemented into the acetonitrile solution as an internal standard. The acetonitrile solution was spun at 17,000 g for 5 minutes, and the supernatant removed and added to a 96 well block. The pellet was resuspended in 500 μl acetonitrile and re-pelleted as before. The supernatant was removed and added to the same well in the block.
Samples were prepared for analysis by drying under a nitrogen stream followed by reconstitution in 110 μl 45:55 ACN:Citrate 10 mM pH 5.5. To ensure optimal recovery the block was shaken via plate shaker at 7,000 rpm for 5 minutes during the reconstitution step. Prior to LC/MS the samples were transferred to a 96 well plate and centrifuged at 6,500 g for 15 minutes. Analysis was performed on an Agilent 1260 Infinity series HPLC with inline 6120 single quad MS using a gradient of 0.1% TFA in acetonitrile (solvent B), and 0.1% TFA (aq) (solvent A) gradient (shown below) on an InfinityLab Poroshell SB-C18 column. […]

CC[C@H](C)[C@@H]1NC(=O)[C@@H]2CSSC[C@H](NC(=O)[C@H](CCCNC(=N)N)NC(=O)[C@@H](NC(=O)[C@H](CC(N)=O)NC(=O)[C@@H](NC(=O)[C@@H]3CCCN3C(=O)[C@@H](NC(=O)CNC(=O)[C@H](CO)NC(=O)CNC(=O)C(C)CCC(C)C(=O)OCC(=O)[C@@]3(O)[C@H](C)C[C@H]4[C@@H]5CCC6=CC(=O)C=C[C@]6(C)[C@@]5(F)[C@@H](O)C[C@@]43C)C(C)C)[C@@H](C)CC)C(C)C)C(=O)N[C@@H](CCCNC(=N)N)C(=O)NCC(=O)N[C@@H](CO)C(=O)N[C@@H](CCCNC(=N)N)C(=O)N[C@@H](CC(=O)O)C(=O)N[C@H]3CSSC[C@H](NC(=O)[C@H](CCCNC(=N)N)NC(=O)[C@H](CO)NC(=O)[C@H](CC(N)=O)NC1=O)C(=O)N[C@@H](Cc1c[nH]cn1)C(=O)N[C@H](C(=O)N[C@H](C(=O)N1CCC[C@H]1C(=O)O)[C@@H](C)O)CSSC[C@H](NC(=O)[C@@H]1CCCN1C(=O)[C@H](CC(=O)O)NC(=O)[C@H](CC(C)C)NC3=O)C(=O)N[C@@H](CCCNC(=N)N)C(=O)N[C@@H](CCCNC(=N)N)C(=O)N[C@@H](C)C(=O)NCC(=O)N[C@@H](CCSC)C(=O)N[C@@H](CCCNC(=N)N)C(=O)N[C@@H](Cc1ccccc1)C(=O)NCC(=O)N[C@@H](CCCNC(=N)N)C(=O)N2 (stereo partly drawn) [Compound 27, peptide(SEQ ID NO: 105)-[dimethyladipic acid]-Dex] (X1-GSGVPINVRCRGSRDCLDPCRRAGMRFGRCINSRCHCTP-OH; disulfide 10-30, 16-35, 20-37 (inferred); C-terminus assumed)
half-life at 0.25 mg/mL [1]: 22.4 h | Half-life (hours) as measured in the hydrolysis experiments ([2]; PBS, release of free Dex, time points to 32 hr): undetectable ≤32 | Hydrolysis half-life ([2]; in PBS, free Dex): No Dex release ≤32 h
